Patent US11932880B2, “Enzyme and method for assaying pentosidine using same” (priority 2018, dated 2024)

How the values were obtained:
[1] = Measurement of L-arginine oxidation activity of hypha extract; assay type: biochemical; conditions: intracellular recombinant PenOX2 after anion exchange and ultrafiltration concentration
Method: 200 μL of each crude enzyme solution was mixed with a 380 μL of 150 mM potassium phosphate buffer solution (pH 7.0) in which 7.1 U/mL peroxidase, 0.70 mM 4-aminoantipyrine and 0.79 mM TOOS were dissolved. The resultant mixture was incubated at 37° C. for 5 minutes, and 20 μL of a 60 mM L-arginine solution was added thereto, followed by stirring, and reacting at 37° C. for 5 minutes. A change over time of A555 during the reaction was measured using a spectrophotometer (U-3900, manufactured by Hitachi High-Tech Science Corporation). A control experiment was performed by adding 20 μL of ion-exchanged water instead of 20 μL of the 60 mM L-arginine solution. An amount of the enzyme generating 1 μmol of hydrogen peroxide per minute at 37° C. was defined as one unit (U), and the activity was calculated in accordance with the following equation: Activity (U/mL)={(ΔAs−ΔA0)×0.6×df}/(39.2×0.5×0.2) • ΔAs: change of A555 per minute of reaction solution • ΔA0: change of A555 per minute of control experiment • 39.2: millimolar absorbance coefficient (mM^−1·cm^−1) of quinoneimine pigment generated through reaction • 0.5: molar number of quinoneimine pigment generated by 1 mol of hydrogen peroxide • 0.6: volume (mL) of whole reaction solution • df: dilution factor • 0.2: volume (mL) of enzyme solution

[2] = Pentosidine quantitative test (DA-67/peroxidase, A658, Bio Majesty JCA-BM1650); assay type: biochemical; conditions: 0.2-4.0 μM pentosidine solutions, 37° C., 5 minutes; ΔA658 correlated with final pentosidine concentration (FIG. 4)
Method: The following reagents were prepared to measure pentosidine by using Bio Majesty JCA-BM1650 (manufactured by JEOL Ltd.).
0.2 μM, 0.4 μM, 0.6 μM, 1.0 μM, 2.0 μM or 4.0 μM pentosidine solution
25 μL of the sample was added to 50 μL of the first reagent, and the resultant was incubated at 37° C. for 5 minutes. Then, 25 μL of the second reagent was added thereto to allow a pentosidine oxidation reaction owing to PenOX2 and a detection reaction for hydrogen peroxide generated through the reaction to proceed at 37° C. for 5 minutes.
In the detection reaction for hydrogen peroxide, simultaneously with consumption of […], DA-67 is oxidized into methylene blue to present the color, and the absorbance (A658) is increased. As an example, the relationship between the elapsed time after the mixture of the sample (4.0 μM pentosidine solution) and the first reagent and the absorbance (A658) is shown in FIG. 3. It was confirmed that A658 increased immediately after the addition of the second reagent containing PenOX2.
Subsequently, an A658 increment (AA) caused by the oxidation of pentosidine was calculated in accordance with the following equation: ΔA=(absorbance 5 min after addition of second reagent)−(absorbance immediately before addition of second reagent×0.75)

[3] = Enzyme activity measurement with pentosidine as substrate (A555 change, U/mL); assay type: biochemical
Method: (§1) 600 μL of an arbitrary buffer, 400 μL of deionized water solution in which 3.99 U/mL peroxidase, 1.8 mM 4-aminoantipyrine and 2 mM TOOS were dissolved, and 150 μL of deionized water were incubated at an arbitrary temperature for 10 minutes. Then, 50 μL of the enzyme solution having been stored on ice and 400 μL of a solution of 4 mM pentosidine dissolved in a 100 mM potassium phosphate buffer (pH 8.0) having been incubated at an arbitrary temperature for 10 minutes were added thereto, followed by stirring and reacting at an arbitrary temperature for 3 minutes. A change over time of A555 during the reaction was measured using a spectrophotometer (U-3900, manufactured by Hitachi High-Tech Science Corporation). An elapsed time from the start of the measurement of 20 seconds to 60 seconds—A555 change was regarded as an activity value.
Besides, an amount of the enzyme generating 1 μmol of hydrogen peroxide per minute at 37° C. was defined as one unite (U), and the activity was calculated in accordance with the following equation. Activity (U/mL)={(ΔAs−ΔA0)×1.6×df}/(39.2×0.5×0.05) • ΔAs: change of A555 per minute of reaction solution • ΔA0: change of A555 per minute of control experiment • 1.6: volume (mL) of whole reaction solution • df: dilution factor • 39.2: millimolar absorbance coefficient (mM^−1-cm-1) of quinoneimine pigment generated through reaction • 0.5: molar number of quinoneimine pigment generated by 1 mol of hydrogen peroxide • 0.05: volume (mL) of enzyme solution
A 50 mM citric acid-100 mM potassium phosphate buffer (pH 4.0 to 7.5, a final concentration), a potassium phosphate buffer (pH 6.5 to 8.0, a final concentration of 100 mM), and a glycine buffer (pH 8.0 to 11.0, a final concentration of 100 mM) were prepared, and these were used to perform an enzymatic reaction at respective pH at a temperature of 37° C. […] Therefore, it was determined that the optimum pH of PenOX2 is pH 6.5 to 8.0, and that the most suitable optimum pH is pH 7.5.
A potassium phosphate buffer (pH 7.5) having a final concentration of 50 mM was used to perform the activity measurement of PenOX2 at various temperatures. The highest activity was obtained around 50° C., and a temperature range for attaining 80% or more of this highest activity was 37° C. to 50° C. Therefore, it was determined that the range of the optimum temperature of PenOX2 is 37° C. to 50° C.
The above-described activity measurement method was employed to perform activity measurement using a potassium phosphate buffer (final pH in the activity measurement: pH 7.5, final concentration of 50 mM) at 37° C., and an activity value (U/mL) was obtained by using the aforementioned equation.
As described above, both PenOX1 and PenOX2 had the pentosidine oxidase activity. […] Subsequently, the following three enzymes were purchased, and the above-described activity measurement method was employed for confirming their pentosidine oxidase activity using a potassium phosphate buffer (pH 7.5, final concentration of 100 mM) at 37° C. The amino acid sequence homologies with PenOX1 and PenOX2 and the pentosidine oxidase activities of these enzymes were as follows.

[4] = Thermal stability of PenOX2 (residual activity after 10 minutes treatment); assay type: physicochemical; conditions: treated 10 minutes at respective temperatures; residual activity measured at pH 7.5, 37° C.; FIG. 9
Method: as §1
Residual activity obtained when the enzyme solution was treated for 10 minutes at respective temperatures was evaluated by performing the activity measurement described above by using a potassium phosphate buffer (final pH in the activity measurement: pH 7.5, final concentration of 100 mM) at 37° C.

[5] = Range of stable pH of PenOX2 (residual activity after 25° C., 20 hours); assay type: physicochemical
Method: as §1
Treatments were performed respectively using, as a buffer solution, a 100 mM citric acid-200 mM potassium phosphate buffer (pH 3.0 to 6.5), a 200 mM potassium phosphate buffer (pH 6.5 to 8.0) and a 200 mM glycine buffer (pH 8.0 to 10.0) at respective pH and at 25° C. for 20 hours, and then, residual activity of PenOX2 was measured.

B1: PenOX2: protein having the amino acid sequence of SEQ ID NO: 4, pentosidine oxidase from Sarocladium sp., gene g10122; recombinant from Aspergillus sojae (protein, listed as Sarocladium sp.)
chain: MFTPKAWIPLLALSREVFSNPTSASHSISFHGLLGVSSESVHNIHLTYGDAFPHGDFRVVFGDCGMTSEDELHHEVASLSTKMESAPDRLVWLVPKDVRENGCLHAFSEGVLLGRSEPVAFTEPLRKRESLSEIGDSDGLWFSGIRYLQSSNLTSVKAAEAKEKKIGIVGGGISGLMTSLLLTSVGMTNWHIIEATERVGGRIRTKYMNGTSPDDYQYQEMGPMRFPVEVKYNDTNETLPIQDHKMVFQLAEVLNEMNGNDTDLAVKFIPWTQNNPNTPANSRGYRLPDGRIPTAAQIAQNPSILPAAANASDPQDAELGKESLERLSDLTPERMRNISANIFKAHRDAIDRGLFHWSEAAYLRYQLGLDDDTVDFVAASDNYPMFPDWWHAVYFAATKWLTIDKGLDSLSRAFVPHVKDKITYGRKIEAMQWNESTSKISLSWRESPLAAAKSDEYDYAVVAVPFSKVRLWKRPAYSNLLTRAIGKLNYEQACKVALLYETRFWEHQEIPIFGGCGSVDIPGIGGVCYPSYEINSTRPGVILSSYITGTEARSVVALSEEDHVAMVQRAMVEVHGPMADEQWTGIYDRLCWEVDENAAGGWASPTVGQQELFIPAYHKTELNTIFIGEHTSITHGWIFSALESSVRGTTQLLLDLGLVDEAKQIVETWMARWITV
[1]
  L-arginine oxidation activity of concentrate of purified PenOX2 solution: 24 U/mL
[2]
  pentosidine oxidation activity: exhibits the pentosidine oxidation activity
[3]; 37° C., FIG. 7
  pH of highest activity (most suitable optimum pH): 7.5 pH
[3]; at 37° C. to 50° C., pH 7.5
  activity relative to highest activity: ≥ 80%
[3]; at pH 6.5 to 8.0, 37° C.
  activity relative to value in potassium phosphate buffer of around pH 7.5: ≥ 70%
[3]; pH 7.5, 50 mM potassium phosphate, 37° C., Lineweaver-Burk plot, FIG. 11
  Km: 140 µM
[3]; pH 7.5, 50 mM, 37° C., protein by Bradford method
  specific activity against pentosidine: 29.1 U/mg
[3]; potassium phosphate buffer pH 7.5, 50 mM, 37° C.
  activity value against pentosidine: 7.8 U/mL
[3]; potassium phosphate buffer pH 7.5, 50 mM, FIG. 8
  temperature of highest activity: around 50 °C
[4]
  temperature up to which enzyme was stable: about 30 °C
[5]; pH range 4.0 to 9.0, FIG. 10
  residual activity relative to PenOX2 stored at 4° C.: ≥ 60%
[5]; pH range 4.5 to 7.5, FIG. 10
  residual activity relative to PenOX2 stored at 4° C.: ≥ 90%
